These results are taken from PMC10103940.

For this assay, the target named is yNup100FG (yeast) (UniProt Q02629). Description: high-speed atomic force microscopy.
Chain of UniProt Q02629 (Q02629 whole entry): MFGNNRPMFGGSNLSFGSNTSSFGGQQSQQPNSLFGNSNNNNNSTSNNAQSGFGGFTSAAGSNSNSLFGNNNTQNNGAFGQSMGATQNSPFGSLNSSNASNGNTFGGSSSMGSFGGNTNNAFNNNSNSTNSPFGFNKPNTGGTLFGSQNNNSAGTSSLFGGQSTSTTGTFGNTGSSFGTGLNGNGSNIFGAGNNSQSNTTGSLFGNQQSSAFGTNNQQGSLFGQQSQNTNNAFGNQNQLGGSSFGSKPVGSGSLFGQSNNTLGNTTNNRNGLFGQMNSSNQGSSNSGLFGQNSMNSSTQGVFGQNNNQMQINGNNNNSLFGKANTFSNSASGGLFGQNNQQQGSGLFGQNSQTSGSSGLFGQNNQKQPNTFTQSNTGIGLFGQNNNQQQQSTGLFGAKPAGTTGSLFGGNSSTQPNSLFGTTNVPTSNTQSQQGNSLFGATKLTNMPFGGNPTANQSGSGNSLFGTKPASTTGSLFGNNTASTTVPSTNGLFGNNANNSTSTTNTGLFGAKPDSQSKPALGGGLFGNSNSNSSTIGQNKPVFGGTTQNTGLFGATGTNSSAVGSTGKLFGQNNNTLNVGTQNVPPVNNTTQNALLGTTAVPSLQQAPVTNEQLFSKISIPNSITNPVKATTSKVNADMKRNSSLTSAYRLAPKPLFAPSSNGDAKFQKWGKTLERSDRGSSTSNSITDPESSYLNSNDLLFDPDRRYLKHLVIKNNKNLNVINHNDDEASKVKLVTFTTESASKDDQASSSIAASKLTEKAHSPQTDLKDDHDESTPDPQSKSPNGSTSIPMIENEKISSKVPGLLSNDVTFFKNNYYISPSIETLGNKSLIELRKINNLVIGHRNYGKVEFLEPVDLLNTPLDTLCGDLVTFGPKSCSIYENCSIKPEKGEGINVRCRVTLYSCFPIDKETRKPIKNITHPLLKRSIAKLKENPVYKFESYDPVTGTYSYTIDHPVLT

“Yeast Kap95 (recombinant) (from UniProt Q06142 1-861) (natural protein)” displayed a height increase of the hydrogel due to Kap95 binding of 31.2 nm.
